Reference: paper PMC12209146 (Cellular and Molecular Life Sciences: CMLS, 2025)

Molecular target: toxin B (TcdB) from Clostridioides difficile VPI 10,463 (Clostridioides difficile VPI 10,463, UniProt P18177 1-2366)
Assay: co-sedimentation; in vitro precipitation assay: TcdB (50 ng, 2 ng/µl) with α-defensin-6 (6 µM) or Angie peptides (100 µM) in 25 µl PBS, 30 min at 37 °C; centrifuged 20 min, 14,000 rpm, 4 °C; supernatant and pellet immunoblotted for TcdB
Conditions: both partners purified

Sequence of toxin B (TcdB) from Clostridioides difficile VPI 10,463 (P18177 whole entry): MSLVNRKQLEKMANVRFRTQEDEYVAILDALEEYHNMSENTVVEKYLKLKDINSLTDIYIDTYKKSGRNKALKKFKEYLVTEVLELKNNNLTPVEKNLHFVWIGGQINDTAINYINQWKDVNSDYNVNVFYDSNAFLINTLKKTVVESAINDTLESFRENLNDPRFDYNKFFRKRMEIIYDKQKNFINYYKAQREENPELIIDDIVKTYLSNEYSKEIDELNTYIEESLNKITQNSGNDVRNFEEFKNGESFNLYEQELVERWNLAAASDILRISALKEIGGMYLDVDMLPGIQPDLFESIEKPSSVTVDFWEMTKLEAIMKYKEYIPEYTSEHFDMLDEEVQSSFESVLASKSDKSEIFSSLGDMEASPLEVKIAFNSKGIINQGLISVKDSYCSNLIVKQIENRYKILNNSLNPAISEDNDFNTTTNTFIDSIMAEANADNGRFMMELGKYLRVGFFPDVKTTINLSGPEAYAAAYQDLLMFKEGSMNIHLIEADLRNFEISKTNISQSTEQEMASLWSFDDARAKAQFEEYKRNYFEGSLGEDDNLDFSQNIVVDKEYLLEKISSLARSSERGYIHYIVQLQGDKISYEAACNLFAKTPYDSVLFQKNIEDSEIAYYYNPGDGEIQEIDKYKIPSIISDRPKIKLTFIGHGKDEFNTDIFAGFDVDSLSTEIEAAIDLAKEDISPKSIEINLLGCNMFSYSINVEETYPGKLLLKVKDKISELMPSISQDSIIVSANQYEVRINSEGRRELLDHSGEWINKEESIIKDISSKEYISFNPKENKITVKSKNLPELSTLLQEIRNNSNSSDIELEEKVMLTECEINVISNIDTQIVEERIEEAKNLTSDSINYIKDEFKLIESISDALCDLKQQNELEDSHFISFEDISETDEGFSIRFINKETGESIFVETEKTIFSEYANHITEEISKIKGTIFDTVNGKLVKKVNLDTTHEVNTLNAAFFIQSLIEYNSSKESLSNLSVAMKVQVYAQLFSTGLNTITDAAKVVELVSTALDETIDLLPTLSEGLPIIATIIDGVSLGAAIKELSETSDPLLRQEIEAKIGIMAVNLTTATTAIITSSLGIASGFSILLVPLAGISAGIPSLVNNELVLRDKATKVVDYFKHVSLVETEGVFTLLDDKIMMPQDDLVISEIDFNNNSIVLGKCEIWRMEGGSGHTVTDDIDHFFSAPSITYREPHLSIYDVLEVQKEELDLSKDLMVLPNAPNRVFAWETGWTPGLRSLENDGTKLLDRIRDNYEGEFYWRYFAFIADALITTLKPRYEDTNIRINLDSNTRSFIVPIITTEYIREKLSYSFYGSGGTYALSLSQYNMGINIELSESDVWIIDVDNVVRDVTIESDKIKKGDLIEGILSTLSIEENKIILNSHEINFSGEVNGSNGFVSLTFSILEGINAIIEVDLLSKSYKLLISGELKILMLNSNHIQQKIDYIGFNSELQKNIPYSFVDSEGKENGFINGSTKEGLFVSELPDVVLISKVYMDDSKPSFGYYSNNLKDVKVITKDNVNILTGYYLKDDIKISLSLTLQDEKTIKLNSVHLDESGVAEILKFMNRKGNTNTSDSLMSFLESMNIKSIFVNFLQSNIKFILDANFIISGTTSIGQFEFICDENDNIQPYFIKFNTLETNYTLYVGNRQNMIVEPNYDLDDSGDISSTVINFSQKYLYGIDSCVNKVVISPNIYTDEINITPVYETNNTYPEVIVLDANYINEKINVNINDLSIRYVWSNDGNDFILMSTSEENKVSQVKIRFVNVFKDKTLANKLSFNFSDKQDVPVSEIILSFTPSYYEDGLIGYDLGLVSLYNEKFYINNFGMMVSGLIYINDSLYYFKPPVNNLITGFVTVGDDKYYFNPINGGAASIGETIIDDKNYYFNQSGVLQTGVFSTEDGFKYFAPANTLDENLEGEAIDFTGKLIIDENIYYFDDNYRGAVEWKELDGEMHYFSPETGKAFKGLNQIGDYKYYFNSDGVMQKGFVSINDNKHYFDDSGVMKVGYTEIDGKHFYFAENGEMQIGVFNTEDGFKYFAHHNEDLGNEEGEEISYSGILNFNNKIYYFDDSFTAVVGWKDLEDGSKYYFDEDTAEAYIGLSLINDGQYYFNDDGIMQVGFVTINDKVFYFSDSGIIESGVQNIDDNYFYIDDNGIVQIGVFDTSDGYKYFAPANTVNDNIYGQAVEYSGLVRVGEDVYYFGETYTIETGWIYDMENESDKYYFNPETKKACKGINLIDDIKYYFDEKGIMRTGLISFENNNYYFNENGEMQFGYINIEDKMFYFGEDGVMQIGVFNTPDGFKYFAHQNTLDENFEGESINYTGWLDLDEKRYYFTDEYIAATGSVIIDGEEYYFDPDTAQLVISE

Binder: AFTCHCRRSCYSTEYSYGTCTVMGINHRFCCL (peptide, UniProt Q01524 69-100, looked up) [human peptide α-defensin-6]
- binding result: binds
